Measurements from PMC2241918.
Where two headings read alike, the source gives them in different places. Blank lines part the entries; values can stand above or below the molecule they belong to.

How the values were obtained:
[1] = biological target: Cfr42I restriction endonuclease (Citrobacter freundii RFL42); experiment: AUC
[2] = biological target: T1, Cfr42I restriction endonuclease (Citrobacter freundii RFL42, UniProt B0LL99 1-216); experiment: EMSA
T1 sequence: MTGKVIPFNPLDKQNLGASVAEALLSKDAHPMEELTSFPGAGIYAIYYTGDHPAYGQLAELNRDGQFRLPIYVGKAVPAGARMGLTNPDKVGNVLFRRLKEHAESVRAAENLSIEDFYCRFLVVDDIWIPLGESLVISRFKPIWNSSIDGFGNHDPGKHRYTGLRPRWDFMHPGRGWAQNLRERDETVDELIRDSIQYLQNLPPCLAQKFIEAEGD

[3] = biological target: T1, Cfr42I restriction endonuclease; experiment: EMSA; remark: listed apart in the source

stoichiometry N [1]: 4
Molecule: Cfr42I restriction endonuclease (enzyme)

B1: 16/16 (dsDNA)
DNA 1: CGCCACCGCGGTGGCG
DNA 2: CGCCACCGCGGTGGCG
binding result [2]: binds

B2: 30/30 (dsDNA)
DNA 1: AGACCCACGCCACCGCGGTGGAGATTACGG
DNA 2: CCGTAATCTCCACCGCGGTGGCGTGGGTCT
binding result [3]: binds
